# Reference: US20230031670, “METHOD AND KIT FOR DETECTION OF POLYNUCLEOTIDE” (Counci of Scientific & Industrial Research, published 2023)
# T1: dFnCas9-GFP (Francisella novicida, UniProt A0Q5Y3 SEQ:272-1899)
# T1 chain: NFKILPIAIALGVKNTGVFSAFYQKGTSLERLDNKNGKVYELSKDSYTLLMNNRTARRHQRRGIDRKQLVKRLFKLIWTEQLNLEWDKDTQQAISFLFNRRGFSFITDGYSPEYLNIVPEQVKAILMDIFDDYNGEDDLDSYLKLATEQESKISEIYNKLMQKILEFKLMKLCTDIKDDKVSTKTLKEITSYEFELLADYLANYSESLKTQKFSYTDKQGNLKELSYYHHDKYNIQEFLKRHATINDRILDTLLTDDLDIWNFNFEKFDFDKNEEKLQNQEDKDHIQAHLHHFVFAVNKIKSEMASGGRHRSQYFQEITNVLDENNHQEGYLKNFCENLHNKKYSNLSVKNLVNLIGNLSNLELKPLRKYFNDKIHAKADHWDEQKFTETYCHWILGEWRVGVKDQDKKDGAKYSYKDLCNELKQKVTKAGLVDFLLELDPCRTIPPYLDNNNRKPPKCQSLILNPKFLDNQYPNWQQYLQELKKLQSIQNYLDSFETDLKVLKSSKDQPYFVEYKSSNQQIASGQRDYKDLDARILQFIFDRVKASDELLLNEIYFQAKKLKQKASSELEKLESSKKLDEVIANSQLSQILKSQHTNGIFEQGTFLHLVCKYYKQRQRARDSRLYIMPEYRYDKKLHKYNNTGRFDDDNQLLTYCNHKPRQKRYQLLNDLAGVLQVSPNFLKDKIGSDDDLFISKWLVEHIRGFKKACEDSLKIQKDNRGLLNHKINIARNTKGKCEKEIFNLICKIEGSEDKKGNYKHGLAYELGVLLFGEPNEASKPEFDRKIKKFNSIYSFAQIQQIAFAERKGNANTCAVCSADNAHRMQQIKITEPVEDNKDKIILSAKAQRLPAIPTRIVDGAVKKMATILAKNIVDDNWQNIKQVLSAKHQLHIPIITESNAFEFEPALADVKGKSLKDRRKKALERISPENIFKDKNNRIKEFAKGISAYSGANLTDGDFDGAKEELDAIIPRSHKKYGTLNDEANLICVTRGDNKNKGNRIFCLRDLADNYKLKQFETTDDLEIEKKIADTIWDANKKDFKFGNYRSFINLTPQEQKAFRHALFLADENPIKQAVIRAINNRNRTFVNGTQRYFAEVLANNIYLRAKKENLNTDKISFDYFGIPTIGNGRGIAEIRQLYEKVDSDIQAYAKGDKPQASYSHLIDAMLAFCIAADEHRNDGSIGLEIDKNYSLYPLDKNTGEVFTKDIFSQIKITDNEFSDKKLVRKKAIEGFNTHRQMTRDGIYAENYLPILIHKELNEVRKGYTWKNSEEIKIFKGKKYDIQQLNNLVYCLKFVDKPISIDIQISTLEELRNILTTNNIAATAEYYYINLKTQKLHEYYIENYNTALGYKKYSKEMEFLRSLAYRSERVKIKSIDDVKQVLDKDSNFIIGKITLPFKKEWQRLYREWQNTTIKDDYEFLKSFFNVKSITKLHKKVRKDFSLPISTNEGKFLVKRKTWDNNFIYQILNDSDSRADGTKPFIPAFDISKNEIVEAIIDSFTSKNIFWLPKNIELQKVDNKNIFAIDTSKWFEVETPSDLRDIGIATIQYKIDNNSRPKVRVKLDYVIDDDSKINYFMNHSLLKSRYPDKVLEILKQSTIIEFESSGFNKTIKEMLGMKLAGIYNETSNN
# Columns and labels:
# Settings in all cases: tags: GFP; Ni-NTA purified
# dFnCas9-GFP [1] = target: T1, dFnCas9-GFP; experiment: MST; low Kd, value in figure only; 30 bp dsDNA, 10 mM MgCl2
# Experimental: (§1) MST was performed as reported previously [Dong, D. et al. The crystal structure of Cpfl in complex with CRISPR RNA. Nature (2016); Wienken, C. J., Baaske, P., Rothbauer, U., Braun, D. & Duhr, S. Protein-binding assays in biological liquids using microscale thermophoresis. Nat. Commun. (2010)]. Briefly, dFnCAS9-GFP (SEQ ID NO: 3) protein was complexed with PAGE purified respective IVT sgRNAs (purified by 12% Urea-PAGE). The binding affinities of the CAS9 proteins and sgRNA RNP complexes were calculated using Monolith NT. 115 (NanoTemper Technologies GmbH, Munich, Germany). RNP complex (Protein:sgRNA molar ratio,1:1) was reconstituted at 25° C. for 10 mins in reaction buffer (20 mM HEPES, pH7.5, 150 mM KCl, 1 mM DTT, 10 mM MgCl₂). HPLC purified 30 bp dsDNA (IDT) of different genomic loci with varying concentrations (ranging from 0.09 nM to 30,t/M) were incubated with RNP complex at 37° C. temperature for 30 min in reaction buffer. The sample was loaded into NanoTemper standard treated capillaries and measurements were performed at 25° C. using 20% LED power and 40% MST power. Data analyses were done using NanoTemper analysis software.
# dFnCas9-GFP [2] = target: T1, dFnCas9-GFP; experiment: MST; SEQ ID NO 33 mismatches at 2 and 6; no binding seen
# Experimental: as §1
# dFnCas9-GFP [3] = target: T1, dFnCas9-GFP; experiment: MST; no binding seen
# Experimental: as §1
binder,measurement,setting,value
HBB WT sgRNA (FnCas9) ; HBB WT target (ssRNA ; dsDNA) RNA: GUAACGGCAGACUUCUCCUCAGGGUUUCAGUUGCGCCGAAAGGCGCUCUGUAAUCAUUUAAAAGUAUUUUGAACGGACCUCUGUUUGACACGUCUG DNA 1: GTAACGGCAGACTTCTCCTC DNA 2: GAGGAGAAGTCTGCCGTTAC,binding result,dFnCas9-GFP [1],binds
HBB sgRNA with mismatches at PAM-proximal 2 and 6 (FnCas9) ; HBB WT target (ssRNA ; dsDNA) RNA: GUAACGGCAGACUUAUCCACAGGGUUUCAGUUGCGCCGAAAGGCGCUCUGUAAUCAUUUAAAAGUAUUUUGAACGGACCUCUGUUUGACACGUCUG DNA 1: GTAACGGCAGACTTCTCCTC DNA 2: GAGGAGAAGTCTGCCGTTAC,binding result,dFnCas9-GFP [2],no binding
HBB WT sgRNA (FnCas9) ; HBB mismatched target 1 (ssRNA ; dsDNA) RNA: GUAACGGCAGACUUCUCCUCAGGGUUUCAGUUGCGCCGAAAGGCGCUCUGUAAUCAUUUAAAAGUAUUUUGAACGGACCUCUGUUUGACACGUCUG DNA 1: GAAGAAAAGTCTGCCGTTAC DNA 2: GTAACGGCAGACTTTTCTTC,binding result,dFnCas9-GFP [3],no binding
